Measurements reported in the DeepSol protein solubility set.

Experiment: soluble on expression in E. coli; label from the status in PepcDB or PDB records

Soluble on expression in E. coli, soluble:
GSHMASMTGGQQMGRGSEFRSMTAIEDILQITTDPSDTRGYSLLKSEEVPQGSTLGVDFIDTLLLYQLTENEKLDKPFEYLNDCFRRNQQQKRITKNKPNAESLHSTFQEIDRLVIGYGVVALQIENFCMNGAFINYITGIVSNVNSYTDFLSQIIQRAILEGTALDLLNAVFPTLLEYCNKHVSHFDLNESVIYNNVLTIFELFVTFKPIAEIFTKIDGFFADYSCKPQDFERKTILGPILSLSPIEAAVAIRNYGDNLLRSKQQTAMIHESLQAEHKVVIDRLFFIVDKLVRGSLNSRTDMISYFAHIANKNHLRRADHPPFKELSSNGFMSNITLLLVRFSQPFLDISYKKIDKIDANYFNNPSLFIDLSGETRLNSDFKEADAFYDKNRKTADSKPNFISDCFFLTLTYLHYGLGGTLSFEEKMGSEIKALKEEIEKVKKIAANHDVFARFITAQLSKMEKALKTTESLRFALQGFFAHRSLQLEVFDFICGASTFLIRVVDPEHEFPFKQIKLPLIPDQIGVENVDNADFLRAHAPVPFKYYPEFVVEGPVNYSLYISKYQTSPIFRNPRLGSFVEFTTMVLRCPELVSNPHLKGKLVQLLSVGAMPLTDNSPGFMMDIFEHDELVNKNLLYALLDFYVIVEKTGSSSQFYDKFNSRYSISIILEELYYKIPSYKNQLIWQSQNNADFFVRFVARMLNDLTFLLDEGLSNLAEVHNIQNELDNRARGAPPTREEEDKELQTRLASASRQAKSSCGLADKSMKLFEIYSKDIPAAFVTPEIVYRLASMLNYNLESLVGPKCGELKVKDPQSYSFNPKDLLKALTTVYINLSEQSEFISAVAKDERSFNRNLFVRAVDILGRKTGLASPEFIEKLLNFANKAEEQRKADEEEDLEYGDVPDEFLDPLMYTIMKDPVILPASKMNIDRSTIKAHLLSDSTDPFNRMPLKLEDVTPNEELRQKILCFKKQKKEEAKHKASE
MVAIVDVGITKFGKRKENIFDLVKEVTEKLLKYDIDYVIVSNSYSGEFNQTSGLSSLITTYLNLDYVPSLRVDNTSGSGGSAILVAKSLLESKEANTVLVVGVEKMSEKKTREVTKIISSLLPFEERIASLPSLASISAIEYMRKFNAPRESIAQVAVKNHYNGSLNPFAHIQKRVTLEEVLNSPVISEPLRLYEYTPISDGAAAVVMVRNEDALSYTSKPVYIKGIGSSNYTAYVSEKEDFVTLPAVVEASRKAFKKAKVERIDFAELHDMATILEIIQSEDIGLFKKGEGWKAVMEGLTSLDGEIPINPSGGLNSKGHPIGASGVAQAVEAFSQIRNEAGNRQVKNARVGLSLSMAGYGNSATVIIYGDEP
MTTLTAQQIACVYAWLAQLFSRELDDEQLTQIASAQMAEWFSLLKSEPPLTAAVNELENRIATLTVRDDARLELAADFCGLFLMTDKQAALPYASAYKQDEQEIKRLLVEAGMETSGNFNEPADHLAIYLELLSHLHFSLGEGTVPARRIDSLRQKTLTALWQWLPEFVARCRQYDSFGFYAALSQLLLVLVECDHQNR
MNYGFVKVAAAVPRVKVADCKFNSERLEGLITIAEGKGVQILTFPEMCITGYTCGDLFAQQLLLEQAEMALIQILNSTRQLDIISILGMPVVVNSTVINAAVVIQKGKILGVVPKTYLPNYKEFYEQRWFTSALQVSENSVRLCGQIVPMGNNLLFETAETTFGIEICEDLWATVPPSSSLALQGAEIIFNLSADDEGIGKHNYLCSLISQQSARCISGYVFSSSGFGESTTDVVFAGNGLIYENGYLLARSERFCMEEQLIINEIDVECIRAERRVNTTFAANKANCPGKEAVRISTEFVNSKDLNLTRTFNPHPFVPQGNELNSRCEEIFSIQIAGLAQRLLHTGAKTAVIGISGGLDSTLALLVCVKTFDKLGLSRKDILGITMPGFGTTDRTYHNAIDLMNSLGVSIREISIREACIQHFKDIGHDLNIHDVTYENSQARERTQILMDIANQTWGMVIGTGDLSELALGWATYNGDHMSMYGVNAGIPKTLVKHLVQWVAENGMDETSKATLLDIVDTPISPELIPADELEHHHHHH
MSLKITKVEVIPISTPMKRAQLMRGATLARIDGVLLKLHSDEGLVGIADAGDTSSWYRGETQDSITSMICDFFAPKVLLGEDPTKIEKIVGRMDILTRDNNQAKATVDFALHDLVGKRFGVPVYQLLGGKTIERIPLGLVLGAGEPEAVAEEALAVLREGFHFVKLKAGGPLKADIAMVAEVRRAVGDDVDLFIDINGAWTYDQALTTIRALEKYNLSKIEQPLPAWDLDGMARLRGKVATPIYADESAQELHDLLAIINKGAADGLMIKTQKAGGLLKAQRWLTLARLANLPVICGCMVGSGLEASPAAHLLAANDWIAQFPQENAGPLHIHDCLNSRDIDNDIALNVPRFEGGYLYPNDGPGLGIELNEDLVRRLVTPGKAARVVTAEGHHHHHH
MGHHHHHHSHMEKSELKPAGVFHFFNEICQVPRPSKKEEKMIAYLKAFGEKHNLETKVDEAGNVLIKKPATPGKENLKTVILQSHVDMVCEKNNDTDHDFLTDPIETEIDGEWMKAKGTTLGADNGIGVATELAILADDSIEHGPIECLFTVDEETGLTGAFALKEGFMSGEILLNLDSEDEGELYIGCAGGIDTVAEFQYENEMTPISHLCFRITVKGLKGGHSGGDIHLGRGNANKILNRFLYQMMTTYQEDFHLYEFNGGNLRNAIPREASAVFSVPEHYKHDIRTALNVFTAEIENELHRVEPDLNILLETEPHRDWSIDSSTSYRLITSLYGCPHGVYAMSQDIPGLVETSTNLASVKMKPENTIRIETSQRSSILSSRDDIATTVRAVFRLAGAQVNWGEGYPGWKPNPDSEILKVAEESYKRLFGVDAKVKAIHAGLECGLFLDKYPALDMISFGPTLTGVHSPDERMHIPSVDKFWKHLLDVLAHIPAKN
MSLKIGIDVGSTTAKLVAVDENDNLLFSKYERHNAKAKETILSFLKELLSEIGDKDISVRITGSIGMGISEKCSLPFVQEVVAAAKAIQKDYSHVTSMIDIGGEDAKVVFFNDAEATDLRMNGNCAGGTGAFIDQMAIILGVNIDELNQLAMNATQVYPIASRCGVFCKTDIQNLIAKNVSRENIAASIFRAVAVQTVVTLAHGCDITTPVLFCGGPLTFIPALRKAFIDYLSLDEKEIILPANGTLLPALGAALFHLDKEDYCKLSHLIDKEGHHHHHH
GSLYKMSSINADFAFNLYRRFTVETPDKNIFFSPVSISAALVMLSFGACCSTQTEIVETLGFNLTDTPMVEIQHGFQHLICSLNFPKKELELQIGNALFIGKHLKPLAKFLNDVKTLYETEVFSTDFSNISAAKQEINSHVEMQTKGKVVGLIQDLKPNTIMVLVNYIHFKAQWANPFDPSKTEDSSSFLIDKTTTVQVPMMHQMEQYYHLVDMELNCTVLQMDYSKNALALFVLPKEGQMESVEAAMSSKTLKKWNRLLQKGWVDLFVPKFSISATYDLGATLLKMGIQHAYSENADFSGLTEDNGLKLSNAAHKAVLHIGEKGTEAAAVPEVELSDQPENTFLHPIIQIDRSFMLLILERSTRSILFLGKVVNPTEA

Soluble on expression in E. coli, not soluble:
MGSDKIHHHHHHMSTNTTSHSTTHSTISSQAVVIKQADFIESIADSLQYISYYHPKDFVDAMTKAYEREESAAAKDAIAQILINSRMSAEGKRPLCQDTGIVTTFVKIGMSVQWDKTDMTVQEMVDEGVRRAYTNPDNPLRASIVSDPAGARKNTKDNTPSVVHIDMVAGNQIEVMIAAKGGGSENKSKMAMLNPSDDIAAWVEKTLPTMGAGWCPPGMLGIGIGGTAEKAAVLAKESLMDPVDIHELMARGAETTEEKLRLDIFERANNLGIGAQGLGGLTTVLDVKIKSVPTHAASKPVVMIPNCAATRHVHFHLDGTGPVDLVPPSLSDWPEITREAGENTHRVNLDTVTQAEIETWKSGDTLLLNGKMLTGRDAAHKRIQMLLESGEGLPAGVDFTGKFIYYVGPVDPVGDEVVGPAGPTTATRMDKFTDMMLDQTGLMGMIGKSERGPETVASIKKHKAVYLMAVGGAAYLVSKAIKKSRVVAFEDLGMEAIYEFDVQDMPVTVAVDTNGVNAHETGPAIWKINIANSKANK
MIRKHSATLHGHRTSISLEDAFWDELKIIAERRKVSFAALLAEIDDSRPADSNLSSSLRVYVLNWLKTR
MAEKRKLLAEIDKCFKKIDEGVELFEETMEKMHEANSDNQRDKYQDDLKKEIKKLQRLRDQVKNWQNASEIKDKDKLNSYRKLIEQRMEQFKDVERENKTKPHSKLGLSAEEKLDPKEKEKAETMDWIQHQIRSLNEEVDRTEMQLESLSNTDTGKGKRGKKEDAKTKNEREKRVEGLKHHLERINFHIEKLEICMRMISNESLNAKMVLETLKEPIETYVEMMNEEDSEEADNYDPDDAYDELNLEKLCQQIGGVNVASVDDEHRENGHELGIDTAESGAVSGSRHTSGENGQPPSPAGRRIVPLSMPSPHAVTPELKRLASKDSNVDRPRTPPVTPASAAPPPPGIPYNSVAAGRSTTTPVPSTPISANSPAPSLAQAAPIAAASPVFPPAAAAASKPVLAQSVSEMPQKKESITSTTSRGSAAAPATTTTTTTTTTSSEPAEVPLVVQQTVSETFVNGVDSPAAATRLTQQERQQQLQQQHHHQSTIIPTTPTTTTTSSSMLGGMMSTDDPAAALQAALNMAAASQQAVATGPKRAHIPAWLGASPLGRTSMTQEFDGQLAALELACAKATFPLDSEKPRNYLSKVSFPVPSWYGQTAPNTSDSLEYYLRLAPDTLFFIFYYMEGTRAQLLAAKALKKLSWRFHTKYLTWFQRHEEPKQITDDYEQGTYVYFDFEKWSQRKKESFTFEYKFLEDKEFD
MGHHHHHHSHMFEFKHIKAFDRAFADNPGPMVVFATPGMLHAGQSLQIFRKWAGNEKNMVIMPGYCVQGTVGHKILSGQRKLEMEGRQVLEVKMQVEYMSFSAHADAKGIMQLVGQAEPESVLLVHGEAKKMEFLKQKIEQELRVNCYMPANGETVTLPTSPSIPVGISLGLLKREMAQGLLPEAKKPRLLHGTLIMKDSNFRLVSSEQALKELGLAEHQLRFTCRVHLHDTRKEQETALRVYSHLKSVLKDHCVQHLPDGSVTVESVLLQAAAPSEDPGTKVLLVSWTYQDEELGSFSHLC
MKEYRIDDLAREARVSVRNVRVYQDRGLLPPPRKQGRTGWYNESHLARLHLIGRMLDRGYTFATISELLTAAHYGLQVKDVLETDDPGSRWKKRRRAARLTIAELKRMFGAQTTEANIAKGTELGVLVPAGDDYSVNDPRLVEAAQVLVDAGIPLEAVLEQTAAVRRDLSDVAARFVAVVADRYLAAEGEPLELDEAKVSEIARLVDQMRPLAHDAVQSLFEEAMEEQISKALERAARQLGETPGPATSTDTNRAS
MGSDKIHHHHHHMSAELPLVFSVTSGKGGVGKTNMSVNIACCLSRMGKRVVLLDADLGLANVDVVLGLAPPRNLFHLFHEGADLGSILCEMPYGFRILPASSGVGEMLSLSTGQKLDLLEAMDVLEDSVDYLLVDTGAGINDNVLYFNIAAQERIVVLTPEPTSLTDAYALIKVMKLNHGVEHFKVLVNMAGDMKAAREVFSRLYKACDHFLSGVSLDLLGYVPRDRTVRRAVVEQTPFCVLDSRSPASLAVQKVAETVQTWDVSASLDGNIKFFWKKLLFR
MGSDKIHHHHHHMETWRFIDSGDRDPAYNMALDEALLNWHSEGLIPPTIRFYGWNPPTLSIGYFQKVQKEINMEMVEKHQLGFVRRPTGGRGVLHDKELTYSVIVTEEHPDMPASVTEAYRIISQGILEGFRDLGLDAYFAVPKTEEEKNALKNPRSAVCFDAPSWYELVVEGRKVAGSAQTRQKGVILQHGSIVLDIDEDKLFDLFNYPSERVRERMQRNFKNKAVPINELRDVPLSMEEVKKAFKDGFEKGLSIKLEPYTLTDAEEAEVKQIAKERYETDEWNFRK
MGYTLADKIWRSHVVRSAEGEPDLVYIDMHLLHEVNTPAAFAGLRAAGRTVRRPDLTLGTEDHNTPTDDVLRMITDPGAVEQLDHIRRNCRDFGIELYSLGDSARGIVHVIGPELGLTQPGMTLVCCDSHTSTHGAFGVLAFGIGTSQVEHVLATQTLPMAPMQN
